Legend:
GFP-tagged PGI1 = target: T1, GFP-tagged PGI1 (Saccharomyces cerevisiae, UniProt P12709 2-554); experiment: co-immunoprecipitation, Nb coupled to NHS-agarose beads, lysate of the yeast strain expressing the GFP-tagged target, SDS-PAGE
T1 construct: Yeast GFP Fusion Collection strain; 88 kDa band; also called GFP-PGI1; Yeast GFP fusion collection GFP(+)12, H11; not shown: GFP tag
Protocol: (§1) Three PGI1-specific Nanobodies (55=Nb clone CA17455 corresponding to SEQ ID NO: 15, 56=CA17456-SEQ ID NO: 16, 57=CA17457-SEQ ID NO: 17) were characterized by co-immunoprecipitation assays. Each PGI1-specific Nanobodies was covalently linked to NHS-agarose beads. The beads that were functionalized with these PGI1-specific Nanobodies were incubated for an hour at 4° C. on a rotating device with either an EBY100 lysate or the lysate of the engineered Yeast strain expressing PGI1 (Yeast GFP fusion collection reference: GFP(+)12, H11) as a GFP-tagged protein. After washing, these beads were resuspended in SDS-PAGE loading dye and analyzed on SDS-PAGE (FIG. 7A). Separated proteins were transferred to a PVDF membrane and the Western blot (FIG. 7B) was developed with GFP-specific antibody to confirm the presence of GFP-tagged PGI1.

[1] = target: T2, PGI1 (native, un-tagged, from EBY100 lysate) (Saccharomyces cerevisiae, UniProt P12709 2-554); experiment: co-immunoprecipitation, Nb coupled to NHS-agarose beads, EBY100 yeast lysate (native target), SDS-PAGE
T2 construct: mature; Endogenous untagged protein, 61 kDa band; also called YBR196C; endogenous PGI1
Protocol: as §1

GFP-tagged ALD6 = target: T3, GFP-tagged ALD6 (Saccharomyces cerevisiae, UniProt P54115 2-500); experiment: co-immunoprecipitation, Nb coupled to NHS-agarose beads, lysate of the yeast strain expressing the GFP-tagged target, Western blot anti-GFP
T3 construct: Yeast GFP Fusion Collection strain; also called Yeast GFP fusion collection GFP(+)15, F1; not shown: GFP tag
T3 sequence (looked up): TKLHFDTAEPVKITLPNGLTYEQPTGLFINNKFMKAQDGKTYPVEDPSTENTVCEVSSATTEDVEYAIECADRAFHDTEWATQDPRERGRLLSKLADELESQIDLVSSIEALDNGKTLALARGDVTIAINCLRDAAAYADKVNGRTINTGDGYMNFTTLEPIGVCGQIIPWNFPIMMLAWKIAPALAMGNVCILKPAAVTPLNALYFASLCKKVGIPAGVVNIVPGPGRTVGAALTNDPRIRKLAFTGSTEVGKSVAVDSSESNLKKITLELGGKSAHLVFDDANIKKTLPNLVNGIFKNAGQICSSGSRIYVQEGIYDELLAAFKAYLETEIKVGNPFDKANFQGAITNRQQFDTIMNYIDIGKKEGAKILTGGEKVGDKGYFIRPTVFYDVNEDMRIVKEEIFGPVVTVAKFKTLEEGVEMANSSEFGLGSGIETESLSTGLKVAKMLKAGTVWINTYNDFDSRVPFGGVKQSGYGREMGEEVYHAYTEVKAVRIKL
Protocol: One SIS1-specific Nanobody (44=Nb clone CA17444 corresponding to SEQ ID NO: 9), three ALD6-specific Nanobodies (53=CA17453-SEQ ID NO: 10, 54=CA17454-SEQ ID NO: 11, 60=CA17460-SEQ ID NO: 12), two BMH1-specific Nanobodies (58=CA17458-SEQ ID NO: 13, 59=CA17459-SEQ ID NO: 14) were characterized by co-immunoprecipitation assays. Each target-specific Nanobodies was covalently linked to NHS-agarose beads. The beads that were functionalized with these target-specific Nanobodies were incubated for an hour at 4° C. on a rotating device with either an EBY100 lysate or the lysate of the engineered Yeast strain expressing the target (Yeast GFP fusion collection reference for SIS1: GFP(+)22, E5, for ALD6: GFP(+)15, F1, for BMH1: GFP(+)27, D5) as a GFP-tagged protein. After washing, these beads were resuspended in SDS-PAGE loading dye and analyzed on SDS-PAGE (FIG. 8A). Separated proteins were transferred to a PVDF membrane and the Western blot (FIG. 8B) was developed with GFP-specific antibody to confirm the presence of GFP-tagged targets.

[2] = target: T4, ALD6 (native, from EBY100 lysate) (Saccharomyces cerevisiae, UniProt P54115 2-500); experiment: co-IP, Nb on NHS-agarose beads, EBY100 yeast lysate, SDS-PAGE
T4 construct: mature; Endogenous untagged protein; also called YPL061W
T4 sequence (looked up): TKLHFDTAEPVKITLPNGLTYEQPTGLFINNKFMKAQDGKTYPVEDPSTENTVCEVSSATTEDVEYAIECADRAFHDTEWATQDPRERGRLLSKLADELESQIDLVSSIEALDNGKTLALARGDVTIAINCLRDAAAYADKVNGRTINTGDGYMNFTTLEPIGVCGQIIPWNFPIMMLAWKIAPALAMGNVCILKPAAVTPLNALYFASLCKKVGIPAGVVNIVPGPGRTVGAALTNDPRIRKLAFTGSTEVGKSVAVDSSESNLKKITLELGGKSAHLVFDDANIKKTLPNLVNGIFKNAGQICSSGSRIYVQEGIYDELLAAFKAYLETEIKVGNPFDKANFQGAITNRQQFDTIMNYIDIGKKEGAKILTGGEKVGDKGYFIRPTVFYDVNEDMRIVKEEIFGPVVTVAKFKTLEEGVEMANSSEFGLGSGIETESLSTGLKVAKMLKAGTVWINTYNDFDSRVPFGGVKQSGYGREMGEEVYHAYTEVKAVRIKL

T1 sequence (P12709 2-554): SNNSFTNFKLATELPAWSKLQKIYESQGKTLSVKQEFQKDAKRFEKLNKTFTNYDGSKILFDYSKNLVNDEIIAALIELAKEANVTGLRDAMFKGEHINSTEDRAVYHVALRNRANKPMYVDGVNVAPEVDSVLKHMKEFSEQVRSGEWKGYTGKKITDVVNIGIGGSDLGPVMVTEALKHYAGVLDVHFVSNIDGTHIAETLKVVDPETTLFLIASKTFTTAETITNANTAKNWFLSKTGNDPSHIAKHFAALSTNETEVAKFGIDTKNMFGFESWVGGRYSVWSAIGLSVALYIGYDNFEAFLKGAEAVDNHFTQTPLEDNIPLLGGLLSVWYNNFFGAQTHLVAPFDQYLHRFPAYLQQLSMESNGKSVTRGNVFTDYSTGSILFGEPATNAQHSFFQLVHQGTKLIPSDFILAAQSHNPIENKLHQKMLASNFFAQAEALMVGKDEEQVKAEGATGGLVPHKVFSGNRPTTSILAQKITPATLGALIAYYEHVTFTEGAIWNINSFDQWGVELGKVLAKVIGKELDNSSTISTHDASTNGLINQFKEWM
T2 sequence (P12709 2-554): as above

B1: CA17456 (VHH)
VHH: QVQLVESGGGLVQPGGSLRLSCAASRSIVTINVMGWYRQAPGKEREFVAGATSGGSTDYADSVKGRFTISRDNAKNTVYLQMNSLKPEDTAVYYCNLRGTGYNYGENYWGKGTQVTVSS
notes: C-terminal 6xHis-EPEA tag is part of the entry
binding result (GFP-tagged PGI1): binds | binding result [1]: binds

B2: CA17457 (VHH)
VHH: QVQLVESGGGLVQTGGSLRLSCAASGGHFSNLAMGWFRQAPGKEREFVAAIGRSQFNLLYSNFVKGRFTISRDNAENTVYLQLNSLNSEDTAIYYCASSGGVSDWRGIMTTGARLARNYDYWGQGTQVTVSS
notes: as for B1
binding result (GFP-tagged PGI1): binds | binding result [1]: binds

B3: CA17454 (VHH)
VHH: QVQLVESGGGLVQPGGSLRLSCAASGSIFSRNYIAWYRQAPGKQRELVARKTQSGATVYADSVKGRFTISTNNAKNTMYLQMNILKPEDTAVYYCNAGGLIGSWGQGTQVTVSS
notes: as for B1
binding result (GFP-tagged ALD6): binds | binding result [2]: binds

B4: CA17453 (VHH)
VHH: QVQLVESGGGVVQPGGSLRLSCAASGRIFIRSAWYRQAPGKQRALVASIFSGGTTNYADSVKGRFTISRDNAKNTVILEMNNLKPEDTAVYYCNVRVRSGTDYWGQGTQVTVSS
notes: as for B1
binding result (GFP-tagged ALD6): binds | binding result [2]: binds

B5: CA17460 (VHH)
VHH: QVQLVESGGGLVQPGDSLRLSCAASGFTVSTNTMTWVRQAPGKGLEWVSTKYSTGGTTYANSVKGRFTISRDNAKNTLYLQMNNLKPEDTAVYYCGGADYRGQGTQVTVSS
notes: as for B1
binding result (GFP-tagged ALD6): binds | binding result [2]: binds

B6: CA17455 (VHH)
VHH: QVQLVESGGGLVQPGGSLRLSCAASGITFPSYRLSWYRQAPGKERELVAAITSDGGTTNYADFVKGRFTISRDNTKNTVYLQMNSLKPEDTAVYYCKAQYFSTPLTYWGQGTQVTVSS
notes: C-terminal 6xHis-EPEA tag is part of the entry; also called PGI1-specific trapper/stripper
binding result (GFP-tagged PGI1): binds | binding result [1]: binds

Source: patent US20240287501A1 (VIB VZW, published 2024)
